In patent US12139520B2 (priority 2020, dated 2024):
Numbered stars: 1 amine (or outer) side, 2 acyl side, 3 side chain; on linkers, the order of the positions; unused ones are H or OH. Bridge positions count the residues as written; N and C are the ends. Square brackets hold non-standard residues; d marks the D form. Ends that are not written are not given here. * marks the point of attachment. C20 diacid = O=C(O)CCCCCCCCCCCCCCCCCCC(=O)*; γGlu = O=C(O)[C@H](CCC(=O)[*:2])N[*:1]; Hyp = O=C(O)[C@@H]1C[C@@H](O)CN1

target: T1, hAMY3R (human, UniProt P30988); experiment: cell-based or functional assay
T1 sequence 1: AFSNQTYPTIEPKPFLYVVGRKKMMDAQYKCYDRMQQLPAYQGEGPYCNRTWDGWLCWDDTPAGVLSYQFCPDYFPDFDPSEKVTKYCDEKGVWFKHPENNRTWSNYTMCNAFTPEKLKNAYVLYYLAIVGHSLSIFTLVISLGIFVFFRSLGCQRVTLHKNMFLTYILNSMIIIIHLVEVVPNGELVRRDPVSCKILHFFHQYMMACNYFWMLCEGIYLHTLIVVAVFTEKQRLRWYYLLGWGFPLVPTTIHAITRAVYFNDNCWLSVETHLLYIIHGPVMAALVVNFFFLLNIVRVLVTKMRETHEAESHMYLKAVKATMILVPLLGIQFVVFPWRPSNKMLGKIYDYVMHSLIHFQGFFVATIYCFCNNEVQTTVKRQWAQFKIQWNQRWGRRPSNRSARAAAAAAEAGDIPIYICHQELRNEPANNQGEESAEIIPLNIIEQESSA
T1 sequence 2: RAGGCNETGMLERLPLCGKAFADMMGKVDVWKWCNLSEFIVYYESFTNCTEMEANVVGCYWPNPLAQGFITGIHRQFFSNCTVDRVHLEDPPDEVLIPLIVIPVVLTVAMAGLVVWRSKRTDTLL

Binder	hAMY3R EC50 (cAMP)
KCRFGTCTVQRLAHQIYQFTDKDKDNVAPRSKISPQT[Hyp]-NH2 (disulfide 2-7 (inferred); ends not checked) [SEQ ID NO: 205]	0.13 nM
GCRTGTCTVQRLAHQIYQFTDKDKDNVAPRTNISPQG[Hyp]-NH2 (disulfide 2-7 (inferred); ends not checked) [SEQ ID NO: 214]	0.157 nM
GCRTGTCTVQRLAHQIYQFTDKDKDNVAPRSKVSPNG[Hyp]-NH2 (disulfide 2-7 (inferred); ends not checked) [SEQ ID NO: 204]	0.129 nM
KCNTATCATQRLANFLVHSSNNFGAILPSTKIGSNGY [SEQ ID NO: 207]	0.131 nM
GCRTGTCTVQRLAHQIYQFTDKDKDNVAPRSKVGPQG[Hyp]-NH2 (disulfide 2-7 (inferred); ends not checked) [SEQ ID NO: 187]	0.093 nM
GCRMGTCTVQRLAHQIYQFTNKDKDNVAPRSKISPQT[Hyp]-NH2 (disulfide 2-7 (inferred); ends not checked) [SEQ ID NO: 192]	0.098 nM
GCRTGTCTVQRLAHQIYQFTDKFKDNVAPRSKISPQF[Hyp]-NH2 (disulfide 2-7 (inferred); ends not checked) [SEQ ID NO: 211]	0.151 nM
GCRTGTCTVQRLAHQIYQFTDKFKDNVAPRSKISPQH[Hyp]-NH2 (disulfide 2-7 (inferred); ends not checked) [SEQ ID NO: 201]	0.126 nM
GCRTGTCTVQRLAHQIWQFTDKFKDNVAPRSKISPQT[Hyp]-NH2 (disulfide 2-7 (inferred); ends not checked) [SEQ ID NO: 213]	0.153 nM
GCRTGTCTVQRLAHQIYQFTDKFKDNVAPRSKISPQY[Hyp]-NH2 (disulfide 2-7 (inferred); ends not checked) [SEQ ID NO: 186]	0.091 nM
GCRIGTCTVQRLAHQIYQFTNKDKDNVAPRSKISPQT[Hyp]-NH2 (disulfide 2-7 (inferred); ends not checked) [SEQ ID NO: 198]	0.122 nM
GCRFGTCTVQRLAHQIYQFTDKFKDNVAPRSKISPQT[Hyp]-NH2 (disulfide 2-7 (inferred); ends not checked) [SEQ ID NO: 212]	0.153 nM
{C20 diacid-γGlu}-GCRFGTCTVQRLAHFLYQFTDKDKDNVAPRTNVGSNTY-NH2 (disulfide 2-7 (inferred); ends not checked) [SEQ ID NO: 208]	0.133 nM
GCRTGTCTVQRLAHQIYQFTDKDKDNVAPRTKISPQG[Hyp]-NH2 (disulfide 2-7 (inferred); ends not checked) [SEQ ID NO: 189]	0.096 nM
GCRTGTCTVQRLAHQIYQFTDKFKDNVAPRSKISPQP[Hyp] (ends and bridges not checked) [SEQ ID NO: 203]	0.127 nM
GCRWGTCTVQRLAHQIYQFTDKDKDNVAPSSKISPQT[Hyp]-NH2 (disulfide 2-7 (inferred); ends not checked) [SEQ ID NO: 202]	0.126 nM

Binder	hAMY3R EC50 (cAMP)
GCRTGTCTVQRLAHQIAQFTDKFKDNVAPRSKISPQT[Hyp]-NH2 (disulfide 2-7 (inferred); ends not checked) [SEQ ID NO: 196]	0.114 nM
GCRTGTCTVQRLAHQIHQFTDKFKDNVAPRSKISPQT[Hyp]-NH2 (disulfide 2-7 (inferred); ends not checked) [SEQ ID NO: 193]	0.099 nM
GCRTGTCTVQRLAHQIYQFTDKDKDNVAPRTKISPNG[Hyp]-NH2 (disulfide 2-7 (inferred); ends not checked) [SEQ ID NO: 197]	0.12 nM
KCNTATCTVQRLAHQAYQFTDKDKDNVAPPTNVGSNG[Hyp]-NH2 (disulfide 2-7 (inferred); ends not checked) [SEQ ID NO: 210]	0.137 nM
KCNTATCTVQRLAHQIYQTDKDKDNVAPPTNVGSNG[Hyp]-NH2 (disulfide 2-7 (inferred); ends not checked) [SEQ ID NO: 195]	0.112 nM
GCRTGTCTVQRLAHQIYQFTDKDKDNVAPRTNISPNGY [SEQ ID NO: 188]	0.094 nM
GCRTGTCTVQRLAHQIYQFTDKDKDNVAPRTNISPQGY [SEQ ID NO: 199]	0.124 nM
GCRTGTCTVQRLAHQIYQFTDKDKDNVAPRTKVSPQGY [SEQ ID NO: 209]	0.136 nM
GCRTGTCTVQRLAHQIYQFTDKDKDNVAPRTKISPNGY [SEQ ID NO: 190]	0.097 nM
GCRTGTCTVQRLAHQIYQFTDKDKDNVAPRSNIGPQGY [SEQ ID NO: 191]	0.098 nM
GCRTGTCTVQRLAHQIYQFTDKFKDNVAPRSKISPQK[Hyp]-NH2 (disulfide 2-7 (inferred); ends not checked) [SEQ ID NO: 206]	0.13 nM
KCRMGTCTVQRLAHQIYQFTDKDKDNVAPRSKISPQT[Hyp]-NH2 (disulfide 2-7 (inferred); ends not checked) [SEQ ID NO: 194]	0.112 nM
{C20 diacid-γGlu}-KCNTATCTVQRLANQIYQFTDKDKDNVAPPTNVGSNG[Hyp]-NH2 (disulfide 2-7 (inferred); ends not checked) [SEQ ID NO: 21]	0.008 nM
{C20 diacid-γGlu}-GCRFGTCTVQRLAHFLYQFTDKDKDNVAPRTNVGPQGY-NH2 (disulfide 2-7 (inferred); ends not checked) [SEQ ID NO: 200]	0.126 nM
KCNTATCTVQRLAHQIYQFTDKDKDNVAPRTKVGSNG[Hyp]-NH2 (disulfide 2-7 (inferred); ends not checked) [SEQ ID NO: 20]	0.008 nM

target: hAM1R (human, UniProt Q16602); experiment: cell-based or functional assay

Binder	hAM1R EC50 (cAMP)
KCRFGTCTVQRLAHQIYQFTDKDKDNVAPRSKISPQT[Hyp]-NH2 (disulfide 2-7 (inferred); ends not checked) [SEQ ID NO: 205]	3230 nM
GCRTGTCTVQRLAHQIYQFTDKDKDNVAPRTNISPQG[Hyp]-NH2 (disulfide 2-7 (inferred); ends not checked) [SEQ ID NO: 214]	2980 nM
GCRTGTCTVQRLAHQIYQFTDKDKDNVAPRSKVSPNG[Hyp]-NH2 (disulfide 2-7 (inferred); ends not checked) [SEQ ID NO: 204]	2980 nM
KCNTATCATQRLANFLVHSSNNFGAILPSTKIGSNGY [SEQ ID NO: 207]	> 5000 nM
GCRTGTCTVQRLAHQIYQFTDKDKDNVAPRSKVGPQG[Hyp]-NH2 (disulfide 2-7 (inferred); ends not checked) [SEQ ID NO: 187]	2980 nM
GCRMGTCTVQRLAHQIYQFTNKDKDNVAPRSKISPQT[Hyp]-NH2 (disulfide 2-7 (inferred); ends not checked) [SEQ ID NO: 192]	> 5000 nM
GCRTGTCTVQRLAHQIYQFTDKFKDNVAPRSKISPQF[Hyp]-NH2 (disulfide 2-7 (inferred); ends not checked) [SEQ ID NO: 211]	2760 nM
GCRTGTCTVQRLAHQIYQFTDKFKDNVAPRSKISPQH[Hyp]-NH2 (disulfide 2-7 (inferred); ends not checked) [SEQ ID NO: 201]	4880 nM
GCRTGTCTVQRLAHQIWQFTDKFKDNVAPRSKISPQT[Hyp]-NH2 (disulfide 2-7 (inferred); ends not checked) [SEQ ID NO: 213]	> 5000 nM
GCRTGTCTVQRLAHQIYQFTDKFKDNVAPRSKISPQY[Hyp]-NH2 (disulfide 2-7 (inferred); ends not checked) [SEQ ID NO: 186]	> 5000 nM
GCRIGTCTVQRLAHQIYQFTNKDKDNVAPRSKISPQT[Hyp]-NH2 (disulfide 2-7 (inferred); ends not checked) [SEQ ID NO: 198]	3960 nM
GCRFGTCTVQRLAHQIYQFTDKFKDNVAPRSKISPQT[Hyp]-NH2 (disulfide 2-7 (inferred); ends not checked) [SEQ ID NO: 212]	> 5000 nM
{C20 diacid-γGlu}-GCRFGTCTVQRLAHFLYQFTDKDKDNVAPRTNVGSNTY-NH2 (disulfide 2-7 (inferred); ends not checked) [SEQ ID NO: 208]	242 nM
GCRTGTCTVQRLAHQIYQFTDKDKDNVAPRTKISPQG[Hyp]-NH2 (disulfide 2-7 (inferred); ends not checked) [SEQ ID NO: 189]	2980 nM
GCRTGTCTVQRLAHQIYQFTDKFKDNVAPRSKISPQP[Hyp] (ends and bridges not checked) [SEQ ID NO: 203]	> 5000 nM
GCRWGTCTVQRLAHQIYQFTDKDKDNVAPSSKISPQT[Hyp]-NH2 (disulfide 2-7 (inferred); ends not checked) [SEQ ID NO: 202]	> 5000 nM

Binder	hAM1R EC50 (cAMP)
GCRTGTCTVQRLAHQIAQFTDKFKDNVAPRSKISPQT[Hyp]-NH2 (disulfide 2-7 (inferred); ends not checked) [SEQ ID NO: 196]	> 5000 nM
GCRTGTCTVQRLAHQIHQFTDKFKDNVAPRSKISPQT[Hyp]-NH2 (disulfide 2-7 (inferred); ends not checked) [SEQ ID NO: 193]	> 5000 nM
GCRTGTCTVQRLAHQIYQFTDKDKDNVAPRTKISPNG[Hyp]-NH2 (disulfide 2-7 (inferred); ends not checked) [SEQ ID NO: 197]	2980 nM
KCNTATCTVQRLAHQAYQFTDKDKDNVAPPTNVGSNG[Hyp]-NH2 (disulfide 2-7 (inferred); ends not checked) [SEQ ID NO: 210]	> 5000 nM
KCNTATCTVQRLAHQIYQTDKDKDNVAPPTNVGSNG[Hyp]-NH2 (disulfide 2-7 (inferred); ends not checked) [SEQ ID NO: 195]	> 5000 nM
GCRTGTCTVQRLAHQIYQFTDKDKDNVAPRTNISPNGY [SEQ ID NO: 188]	47.6 nM
GCRTGTCTVQRLAHQIYQFTDKDKDNVAPRTNISPQGY [SEQ ID NO: 199]	2980 nM
GCRTGTCTVQRLAHQIYQFTDKDKDNVAPRTKVSPQGY [SEQ ID NO: 209]	1020 nM
GCRTGTCTVQRLAHQIYQFTDKDKDNVAPRTKISPNGY [SEQ ID NO: 190]	2980 nM
GCRTGTCTVQRLAHQIYQFTDKDKDNVAPRSNIGPQGY [SEQ ID NO: 191]	2980 nM
GCRTGTCTVQRLAHQIYQFTDKFKDNVAPRSKISPQK[Hyp]-NH2 (disulfide 2-7 (inferred); ends not checked) [SEQ ID NO: 206]	> 5000 nM
KCRMGTCTVQRLAHQIYQFTDKDKDNVAPRSKISPQT[Hyp]-NH2 (disulfide 2-7 (inferred); ends not checked) [SEQ ID NO: 194]	3530 nM
{C20 diacid-γGlu}-KCNTATCTVQRLANQIYQFTDKDKDNVAPPTNVGSNG[Hyp]-NH2 (disulfide 2-7 (inferred); ends not checked) [SEQ ID NO: 21]	> 5000 nM
{C20 diacid-γGlu}-GCRFGTCTVQRLAHFLYQFTDKDKDNVAPRTNVGPQGY-NH2 (disulfide 2-7 (inferred); ends not checked) [SEQ ID NO: 200]	38.2 nM
KCNTATCTVQRLAHQIYQFTDKDKDNVAPRTKVGSNG[Hyp]-NH2 (disulfide 2-7 (inferred); ends not checked) [SEQ ID NO: 20]	> 5000 nM
